2 molecules from patent US20220185875A1 (JIANGSU HENGRUI MEDICINE, published 2022) can be followed below.

Assay [1] addresses T1, human ANG2 with human Fc tag (huANG2-Fc) (human, biotin label (Dojindo kit LK03, position not stated) in Test Examples 3 and 4; unlabelled in Test Example 5).
T1 construct: It starts at YNNFRK, without a signal peptide; also called bio-huANG2-Fc; human Ang2-Fc
As to the kind of experiment: competition ELISA: Tie2-Fc coated, biotin-huANG2-Fc 0.15 ug/ml premixed with antibody; blocking of ANG2 binding to Tie2. The procedure:
Specific methods: the ELISA plate was coated with Tie2-Fc (SEQ ID NO: 2, 3 μg/ml dissolved in PBS, 100 μl/well) overnight at 4° C. and the coating solution was removed, 5% skimmed milk blocking solution diluted with PBS was added at 200 μl/well and incubated in a 37° C. incubator for 2 h for blocking. After the blocking was completed, the blocking solution was discarded and the plate was washed with PBST buffer (PBS containing 0.05% tween-20, pH 7.4) for 5 times. […] The solution was mixed well and then incubated at 37° C. for 15 min, added to the ELISA plate and incubated at 37° C. for 1 h. After the incubation was completed, the reaction solution in the ELISA plate was discarded and the plate was washed 5 times with PB ST. Then 1:4000 diluted streptavidin-peroxidase polymer (Sigma, 52438-250UG) was added at 100 μl/well and incubated at 37° C. for 1 h. After washing the plate 5 times with PBST, 100 μl/well TMB chromogenic substrate (KPL, 52-00-03) was added and incubated at room temperature for 3-10 min, and 1 M H₂SO₄ was added at 100 μl/well to stop the reaction.
(In an ELISA, binding on a coated surface is turned into a signal by an enzyme label.)

Assay [2] concerns the target T2, biotin-hAng2-His (sinobiological, 10691-H07H) (human, UniProt O15123 19-496, biotin label, position not stated).
T2 construct: Bought reagent; also called Human ANG2-his; human ANG2
T2 sequence (looked up): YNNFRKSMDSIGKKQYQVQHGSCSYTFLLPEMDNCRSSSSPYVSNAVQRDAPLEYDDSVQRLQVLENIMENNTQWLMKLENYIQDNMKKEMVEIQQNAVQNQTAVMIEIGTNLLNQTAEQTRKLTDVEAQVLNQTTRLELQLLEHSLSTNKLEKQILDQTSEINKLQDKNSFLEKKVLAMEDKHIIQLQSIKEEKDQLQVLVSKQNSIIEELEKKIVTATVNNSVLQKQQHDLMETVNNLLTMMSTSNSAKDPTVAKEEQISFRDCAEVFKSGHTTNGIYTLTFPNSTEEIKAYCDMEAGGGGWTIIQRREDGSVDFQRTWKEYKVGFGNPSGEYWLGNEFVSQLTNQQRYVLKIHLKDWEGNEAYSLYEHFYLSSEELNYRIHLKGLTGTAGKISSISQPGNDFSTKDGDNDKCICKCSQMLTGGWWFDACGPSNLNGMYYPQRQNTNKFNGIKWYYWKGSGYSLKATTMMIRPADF
Nature of the assay: ELISA, biotin-hAng2-His captured on streptavidin plate, OD450. The method, then:
(§1) The plate was coated with streptavidin (abcam, ab123480) at a concentration of 1 ng/μl, 100 μl per well overnight at 4° C., and then the supernatant was removed. 250 μl 5% skimmed milk powder was added for blocking at 37° C. for 1 h, and the plate was washed with a washing machine for 3 times. 0.5 ng/μl biotin-hAng2-His (sinobiological, 10691-H07H) was added and incubated at 37° C. for 1 h. The plate was washed with a washing machine for 3 times, and 100 μl 1:1 diluted phage supernatant was added and incubated at 37° C. for 1 h. The plate was washed with a washing machine for 3 times, and 100 μl 1:10000 diluted anti-M13-HRP (GE, 27-9421-01) was added to each well and incubated at 37° C. for 1 h. The plate was washed with a washing machine for 3 times, and 100 μl TMB was added to each well for color development. After 5-10 min, 100 μl 1 M H₂SO₄ was added to each well to stop the color development, and the OD450 value was measured with a microplate reader.

In another assay the target is T3, human ANG1 (RD,923-AN) (human, UniProt Q15389 20-498, limits assumed).
T3 sequence (looked up): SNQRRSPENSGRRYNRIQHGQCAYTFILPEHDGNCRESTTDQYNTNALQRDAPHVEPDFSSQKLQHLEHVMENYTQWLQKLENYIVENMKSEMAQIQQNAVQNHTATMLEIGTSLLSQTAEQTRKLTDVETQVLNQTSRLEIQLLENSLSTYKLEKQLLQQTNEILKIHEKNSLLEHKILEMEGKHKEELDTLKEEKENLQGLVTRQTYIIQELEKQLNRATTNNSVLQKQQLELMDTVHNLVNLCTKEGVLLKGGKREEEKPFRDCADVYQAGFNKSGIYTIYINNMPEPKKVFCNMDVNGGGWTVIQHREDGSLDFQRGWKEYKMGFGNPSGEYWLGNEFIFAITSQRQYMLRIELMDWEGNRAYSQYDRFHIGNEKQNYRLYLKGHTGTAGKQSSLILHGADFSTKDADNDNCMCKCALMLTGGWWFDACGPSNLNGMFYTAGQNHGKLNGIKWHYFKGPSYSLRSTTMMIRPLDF
Nature of the assay: ELISA, plate coated with human ANG1, OD450. The method, then:
as §1, with “human ANG1 (RD,923-AN)” for “streptavidin (abcam, ab123480)”, “C. The” for “C., and then the”, “removed and” for “removed.”, “blocking” for “blocking at 37° C. for 1 h, and the plate was washed with a washing machine for 3 times. 0.5 ng/μl biotin-hAng2-His (sinobiological, 10691-H07H) was added and incubated”, “M13-HRP” for “anti-M13-HRP (GE, 27-9421-01)”

B1: Llama-derived single domain antibody nano14 (VHH)
VHH: DVQLQESGGGLVQPGGSLRLSCAASGFTFDDFGMSWVRQAPGKGLEWVSSITWNGGSTYYADSVKGRFTISRDNAKNTVYLQMNSLKPEDTAIYYCNADHPQGYWGQGTQVTVSS
In the case of B1, the IC50 (as a rule, the midpoint of a concentration-inhibition curve) in assay [1] amounted to 0.0393 nM. In assay [2], the EC50 (read off the curve) (as a rule, the midpoint of the concentration-response curve) was about 0.08 nM. In addition, in the assay with human ANG1 (RD,923-AN), the binding result is reported as “no binding (tested: 100 nM)”.

B2: Llama-derived single domain antibody nano15 (VHH)
VHH: DVQLQESGGGLVQPGGSLRLSCAASGFTFNSYAMSWVRQAPGKGLEWVSTINSGGGRTGYADSVKGRFTISRDNAKNTLYLQMNSLKPEDTAIYYCNADHPQGYWGQGTQVTVSS
In turn, B2 yielded an IC50 in assay [1] of 0.0281 nM. Moreover, the “EC50 (read off the curve)” value in assay [2] was about 0.06 nM. Further, the binding result in the assay with human ANG1 (RD,923-AN) is “no binding (tested: 100 nM)”.
